Molecular target: T1, human VEGF-A (human, UniProt P15692-4 27-191)
T1 construct: ELISA methods name 'full-length VEGF165-His protein (R&D Systems)'; Biacore methods name rhVEGF (R&D Systems Cat. No. 293-VE); also called VEGF165; VEGF165-His
Assay: ELISA and Biacore (SPR), incl. simultaneous binding (bridging ELISA, sandwich SPR)

T1 sequence (P15692 other isoform, or with tags, fused parts or gaps limits assumed): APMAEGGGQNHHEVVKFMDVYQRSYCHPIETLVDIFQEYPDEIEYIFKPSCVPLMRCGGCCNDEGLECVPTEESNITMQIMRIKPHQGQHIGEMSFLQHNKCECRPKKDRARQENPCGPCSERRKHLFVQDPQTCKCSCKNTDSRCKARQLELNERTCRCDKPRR

binding result: binds
B1: bispecific, tetravalent antigen binding protein recognizing Ang-2 and VEGF-A (bispecific antibody, human IgG1, kappa)
heavy 1: not shown
light 1: QPGLTQPPSVSVAPGQTARITCGGNNIGSKSVHWYQQKPGQAPVLVVYDDSDRPSGIPERFSGSNSGNTATLTISRVEAGDEADYYCQVWDSSSDHYVFGTGTKVTVLRTVAAPSVFIFPPSDEQLKSGTASVVCLLNNFYPREAKVQWKVDNALQSGNSQESVTEQDSKDSTYSLSSTLTLSKADYEKHKVYACEVTHQGLSSPVTKSFNRGEC
heavy 2: not shown
light 2: DIQMTQSPSSLSASVGDRVTITCSASQDISNYLNWYQQKPGKAPKVLIYFTSSLHSGVPSRFSGSGSGTDFTLTISSLQPEDFATYYCQQYSTVPWTFGQGTKVEIKSSASTKGPSVFPLAPSSKSTSGGTAALGCLVKDYFPEPVTVSWNSGALTSGVHTFPAVLQSSGLYSLSSVVTVPSSSLGTQTYICNVNHKPSNTKVDKKVEPKSC
notes: Expressed transiently in HEK293F cells; also called bispecific tetravalent <VEGF-Ang-2> antibody; <Ang-2, VEGF> bispecific tetravalent antibody

From patent publication US20150044214A1 (Hoffmann-La Roche, published 2015)
